The record followed here is article PMC11196582 (Scientific Reports, 2024).

For one experiment, the target named is T1, Biotinylated IL-4Rα (Homo sapiens (assumed), UniProt P24394, biotin).
T1 construct: IL-4 receptor alpha (IL-4Rα); Probably a soluble extracellular construct of the human receptor (surmised); also called IL-4Ra; immobilized IL-4Rα
The experiment in a line: SPR; iMSPR-ProX; biotinylated IL-4Rα immobilised on the sensor chip (A-Dex100) at 169.7 RU; Dup-scFv at 1.56-100 nM; regeneration with 10 mM glycine-HCl pH 1.5; 1:1 kinetic binding model. The conditions noted are these: both partners purified. (In general: Surface plasmon resonance follows binding to a sensor surface in real time, without labels.)

Experiment [1] addresses T2, Human IL-4Rα overexpressed on HEK293T cells (Homo sapiens (Human)., UniProt P24394).
T2 construct: IL-4 receptor alpha (IL-4Rα), human, overexpressed on HEK293T cells; also called IL-4Ra; IL-4 receptor alpha; source: HEK293T, lentiviral transduced (IL4R-EGFP), on cells
The experiment in a line: flow cytometry on cells; human IL-4Rα-overexpressing HEK293T cells, 2x10^5 cells/tube in PBS; seven-point curve; Dup-scFv detected with anti-6xHIS antibody and Alexa Fluor-647 anti-mouse IgG, dupilumab with Alexa Fluor-647 anti-human IgG; fitted in GraphPad Prism 8. The settings on record: one partner purified. In general terms: In flow cytometry, cells or beads pass a laser one at a time.

Experiment [2] concerns the target T2, Human IL-4Rα overexpressed on HEK293T …. Kind of experiment: cell-based or functional assay.

The Kd is a measure of binding affinity in units of concentration. Low values mean tighter binding, high ones weaker binding. Broadly, the EC50 is the concentration giving half of the maximal effect.

T2 sequence (P24394 26-825): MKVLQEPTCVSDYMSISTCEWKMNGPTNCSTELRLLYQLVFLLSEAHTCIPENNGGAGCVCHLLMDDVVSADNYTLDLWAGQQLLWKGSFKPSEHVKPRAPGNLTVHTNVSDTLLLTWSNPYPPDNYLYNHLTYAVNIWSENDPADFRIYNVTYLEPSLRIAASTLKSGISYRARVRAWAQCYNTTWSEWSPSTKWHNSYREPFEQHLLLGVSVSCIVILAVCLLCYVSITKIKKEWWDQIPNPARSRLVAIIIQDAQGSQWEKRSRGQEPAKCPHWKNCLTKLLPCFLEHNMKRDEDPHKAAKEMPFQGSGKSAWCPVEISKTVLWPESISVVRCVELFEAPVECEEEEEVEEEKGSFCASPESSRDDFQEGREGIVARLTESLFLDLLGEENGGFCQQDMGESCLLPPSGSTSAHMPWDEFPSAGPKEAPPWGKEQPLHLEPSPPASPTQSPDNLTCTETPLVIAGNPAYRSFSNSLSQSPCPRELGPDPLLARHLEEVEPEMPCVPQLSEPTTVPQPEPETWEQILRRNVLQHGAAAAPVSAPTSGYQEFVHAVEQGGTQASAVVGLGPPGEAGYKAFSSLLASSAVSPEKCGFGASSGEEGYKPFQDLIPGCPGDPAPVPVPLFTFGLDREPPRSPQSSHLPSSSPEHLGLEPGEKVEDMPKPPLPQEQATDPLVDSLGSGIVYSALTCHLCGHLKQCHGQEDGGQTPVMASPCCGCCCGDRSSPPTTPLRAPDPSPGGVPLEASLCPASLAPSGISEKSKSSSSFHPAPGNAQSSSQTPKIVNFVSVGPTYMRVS
T1 sequence (P24394 26-825): as above

B1: Dup-scFv with HDEL (single-chain variable fragment of dupilumab produced by Nicotiana benthamiana) (scFv, V domains shown)
VH: EVQLVESGGGLEQPGGSLRLSCAGSGFTFRDYAMTWVRQAPGKGLEWVSSISGSGGNTYYADSVKGRFTISRDNSKNTLYLQMNSLRAEDTAVYYCAKDRLSITIRPRYYGLDVWGQGTTVTVSS
VL: DIVMTQSPLSLPVTPGEPASISCRSSQSLLYSIGYNYLDWYLQKSGQSPQLLIYLGSNRASGVPDRFSGSGSGTDFTLKISRVEAEDVGFYYCMQALQTPYTFGQGTKLEIK
notes: VH region of dupilumab; linker, printed as (GGGGS)4 / 4 x G4S; VL region of dupilumab; The form without HDEL is GenBank PP711327; also called dupilumab-scFv; source: N. benthamiana leaves, Agrobacterium-mediated transient expression with p19, purified (Ni-NTA); not shown: His6, C-terminal, kept
In the experiment with Biotinylated IL-4Rα, B1 came in with a Kd of 0.476 nM. In addition, it took 17.3 nM to reach a half-maximal effect in experiment [1] (EC50). Besides, the “IL-4-induced CCL26 mRNA (qPCR; more than 3000-fold with IL-4 alone) in HNECs with Dup-scFv 20 μg/ml on the apical side” value in experiment [2] came out at 1790 fold.

B2: Dupilumab (antibody, V domains shown)
VH: EVQLVESGGGLEQPGGSLRLSCAGSGFTFRDYAMTWVRQAPGKGLEWVSSISGSGGNTYYADSVKGRFTISRDNSKNTLYLQMNSLRAEDTAVYYCAKDRLSITIRPRYYGLDVWGQGTTVTVSS
VL: DIVMTQSPLSLPVTPGEPASISCRSSQSLLYSIGYNYLDWYLQKSGQSPQLLIYLGSNRASGVPDRFSGSGSGTDFTLKISRVEAEDVGFYYCMQALQTPYTFGQGTKLEIK
notes: heavy chain of dupilumab (IgG4); light chain of dupilumab; IgG4 subclass monoclonal antibody (developed by Regeneron/Sanofi)
As for B2, binding with Biotinylated IL-4Rα was characterised by a dissociation constant (Kd) of 0.133 nM. The molecule also showed an EC50 in experiment [1] of 1.02 nM. Moreover, in experiment [2], the “IL-4-induced CCL26 mRNA (qPCR; more than 3000-fold with IL-4 alone) in HNECs with dupilumab 100 μg/ml on the apical side” value amounted to 2200 fold.
